Test results taken from patent publication US20230406907A1 (SORRENTO THERAPEUTICS, published 2023).

Target: SARS-CoV-2 S1 subunit (amino acids 16-685 of SEQ ID NO:1, i.e. SEQ ID NO:4) with a carboxy terminal … (SARS-CoV-2, UniProt P0DTC2 16-685)

B1: antibody S1D2 (fully human recombinant monoclonal IgG1, no Fc mutation) (antibody, V domains shown)
VH: EVQLVESGGGLIQPGGSLRLSCAASGFTVSSNYMSWVRQAPGKGLEWVSIIYPGGSTNYADSVKGRFTISRDNSRNTLYLQMNSLRAEDTAVYYCARELGYYGMDVWGQGTTVTVSS
VL: DIQMTQSPSSVSASVGDRVTITCRASQGISTWLVWYQQKPGKAPNLLIYGASSLQSGVPSRFSGSGSGTDFTLTISSLQPEDFATYYCQQANSFPYTFGQGTKLEIK
- IC50: 1.87 nM
